Results: the nanobody polyreactivity screen of Harvey et al. (2022)

test: yeast display, Sf9 membrane polyspecificity reagent, FACS + sequencing; frameworks hold sequencing errors
Method in brief: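 Using colony PCR, genes from sorted yeast display clones were amplified, then sequenced on MiSeq at 2 × 250 and filtered by CDR length. The clones had been stained with 10% biotinylated, detergent-solubilized Sf9 membrane reagent for 1 hour at 4 °C and sorted by FACS into low and high (top ~1%) gates on anti-HA and streptavidin fluorescence. Polyreactivity labels come from the gate of origin.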

Sequence | polyreactivity (PSR sort gate)
QVQLVESVGGLVQAGGSLRLSCAGSGFTFYRYTMGWYRQAPGTERELVAAISFSGGITRYADSVKGRFTISRDNAKNTVYLQMNSLKPEDTAVYYCNVVGPSAYLSWHKSGDYWGQGTQVTVSS | low polyreactivity
QVQLVESVGGLVQAGGSLRLSCAGSGSIFFRNSMLWYRQAPGKERELVAAIRSSVSSTYYADSVKGRFTISRDNAKNTVYLQLNSLKPEDTAVYYCAAAARSYVGYYYWGQGTQVTVSS | low polyreactivity
QVQLVESVGGLVQAGGSLRLSCAGSGSTFGRYTMGSSRQAPVKEREFVAAIRWSGGNTYYADTVKGRFTISRGKAKNTVYLQMNSLKTEDTAVFYCNRVYSTIGDYWGQGTQVTVSS | low polyreactivity
QVQLVESVGGLVQAGGSLRLSCASSGRIFRGNAMGWYRQAPGKERELVAAINSRGTHTYYADSVKGRFTISRDNAKNTVYLQMNSLKPEDTAVYYCAATWTQPQPGYYAYYYWGQGTQVSVSS | high polyreactivity
QVQLVESVGGLVQAGGSLRLSCASSGSIFEGSAMGRYRQAPGKEMELVASISSGGSTNYADSVKGRFTISRDNAKNTVYLQMNSLKPEDTAVYYCAAEWVWYKWEFEYWGQGTKVTVSS | high polyreactivity
QVQLVESVGGLVQAGGSLRLSCASSGSTFGFNAIGWYRKAPVKERELVAANTFSGGTTYYADSVKGRFTISRDNAKNTVYLQMNSLKPEDTAGYYCNAEWWYQYTGPFSPWGEDYWGQGTQVTVSS | low polyreactivity
QVQLVESVGGLVQAGGSLRLSCDASGRIFRRYAMGWYRQAPGKERELVAAISSSGDSTYYADSVKGRFTISRDNAKNTVYLQMNSLKPEDTAVYYCAAVTRRYVLSTFYYWGQGTQVTVSS | high polyreactivity
QVQLVESVGGLVQAGGSLRLSCDASGRTFRVYAMGWYRQAPGKERELVAAITSGDSTYYADSVKGRFTISRDNAKNTFYLQMNSLKPEDTAVYYCAVNTSRYWSGYWGQGTQVTVSS | high polyreactivity
QVQLVESVGGLVQAGGSLRLSCDASGSTFPKYAMGRSRQAPAKEIELVAGISWRGGSTYYADSVKGRFTISRDNAKNTVYLQMNSLKPEDTAVYYCNKYLYYSFQDDYWGQGTQVTVSS | high polyreactivity
QVQLVESVGGLVQAGGSLRLSCPASGFTFKYYAMGWYRQAPGKEREFVAAISRSGGSTTYADSVKGRFTISRDNAKNTVYLQMNSLKPEDTAVYYCAVAYYTAYTPRDGEYWGQGTQVTVSS | high polyreactivity
QVQLVESVGGLVQAGGSLRLSCPASGSIFYANAMGGYRQAPGKERELVATISTGGGRTYYADSVKGRFTISRDKAKNTVYLQMNSLKAEDTAVYYCNATRNYARVRYYYWGKGTQVTVSS | high polyreactivity
QVQLVESVGGLVQAGGSLRLSSAASGFTFVPYAMGWYRQAPGKERETNADSVKGRFTISRDNAKNTVYLQMNSLKPEDTAVYYCAADLGRGIYDYWGQGTQVTVSS | low polyreactivity
QVQLVESVGGLVQAGRSLRLSCAASGNTFLRYAMGWYRQAPGKERELVAAISRSGGSTYYADSVKGRFTISRDNAKNTVYLQMNSLKPEDTAVYYCAARRSSQPDKGYYYWGQGTQVTVSS | high polyreactivity
QVQLVESVGGLVQEGGSLRLSCAASGSNFQWYAMGWYRQAPGKERELVAAIRYSGDSTYYADSVKGRFTISRDNAKNTDYLQMNSLKPEDTAVYYCAAEATTRWLLYNYWGQGTQVTVSS | high polyreactivity
QVQLVESVGGLVQPGGSLRLSCAASGRTFGRYAKGWYRQAPGKERELVAGISRSGDSTHYADSLKGRFTISRDNAKYCVYLQMKSLKPEDTEVYYCNKETPTIGARKYEYWGQGTQVNVSS | low polyreactivity
QVQLVESVGGLVQSGGSLRLSCAASGFTFYRYGIGWYREAPGKERELVAAITSGGITYYADSVKGRFTISRDNAKNTVYLQLNSLKPEDTAVYYCNAVYPVAAIVRYDYWGQGTQVTVSS | high polyreactivity
QVQLVESVGGVVQAGGSLRLSCAASGSIFRWNAMGWYRQARGKEWELVAVNTWRGGRTYYADSVKGRFTFSRDNAKKTVYLQMNSLNPEYTSFSYCAKGRLVTTLFGHYATCEYDSWGHGTQVTVSS | high polyreactivity
QVQLVESVGVLVQAGARLRLSCAASGSIFRTNTMGSYRQAPVKERELVAAITAIGDSTYYGDSVKGRFTISRDNAKNTVYLQMNSLKPEDTAVYYCAAEKVSWGYHFYSSSDYWGQATQVTVSS | low polyreactivity
QVQLVESVGVLVQAGGSLRLSCAASVSIFDYNAMGWYRQAPGKERELVADITISDDSTYYADSVKGRFTISRDNAKNTVYLQMNSLKPEDTAVYYCAADIKYYWYYYYWAYAYDYWGQGTQVTVSS | high polyreactivity
QVQLVESVRGLVQAGGSLRLSCAASGFIFRSYAMGWYRQAPGKEREFVAAISRSGGRTYYADSVKGRFTISRDNAKNTVYLQMNCLKPEDTAVYYCAATVGGSYTFDYWGQGTQVTVSS | high polyreactivity
QVQLVESVVGLVQAGGILRLSCSASGRTFVHYTMGWYRQAPGKETELVAAISGTGTSTYYADSVKGRFTISRDNAKNTVYLQMNSLKPEDTAVYYCARDPYFGFHMGYPRRDYWGQGTHVTVSS | low polyreactivity
QVQLVESVVGLVQAGGSLRLRCAASGIIFSKYAMGWYIQEPGKERELVARISWRGGDTYYADSVKGRFTISRDNAKNTVYLKMNSMKQEDTSVYYFNARIWGRYFSYTRFDYWGQCTQVTVSS | high polyreactivity

Sequence | polyreactivity (PSR sort gate)
QVQLVESVVGLVQAGGSLRLSCAASGITFNRNAMGWYIEAPGKERELVAAISSGGSTNYADSVKGRFTISRDNAKNTVYLQMNSLKPEDTAVYYCARAQYWYGKGYYYWGQGTQVTVSS | high polyreactivity
QVQLVESVVGLVQAGGSLRLSCAASGRIFIIYAMGWYIQAPGKEREFVAAITSSGGSTYYGDSVKGRFTISRDNAKNTVYLQMNSLKPEDSAVYYCAARVTKLRTSSLRGYWGQGTQVTVSS | high polyreactivity
QVQLVESVVGLVQAGGSLRLSCAASGRTFYRNGMGWYRQAPGKERELVAAISSRGGSTYYADSVKGRFTISRDNAKNTVYLQMNSLKPEDTAVYYCAAPRASGYYWGQGTQVTVSS | high polyreactivity
QVQLVESVVGLVQAGGSLRLSCAATGSIFRWYAMGWYRQAPGKERELVAAITWSASRTYYADSVKGRFTISRDNGKNTVYLQMNSLKPEDTAVYYCAADHDCPYAGYDSWGQGTQVTVSS | low polyreactivity
QVQLVESVVGLVQAGGSLRLSCDASGRIFRYYAMGWYRQAPGKERELVARITSSGSTYYADSVKGRFTISRDNAKNTVYLQMNSLKPDDTAVYYCAADWYWGGIVDSWGQGTQVTVSS | high polyreactivity
QVQLVESVVGLVQAGGSLRLSSAASGRIFNQYGMGWYRQSPGKESELVAAIRSGDSTNYADSVKGRFTISRDNAKNTVYLQMNSLKPEDTAVYYCARDLPGDYAGFDYWGQGTQVTVSS | low polyreactivity
QVQLVESWGGLDQAGGSLRLSCAASGSTFYAYAMGWYRPAPGKERELVAAISSDGTNYADSVKGRFTISRDNAKNTVYLQMNSLKPEDTAVYYCAADLLLYSSQDNDFWGQGTQVTVSS | low polyreactivity
QVQLVESWGGLFQAGGTLRLSCAASGRTFIGYDMEWYRQAPGKERELVATISWNGADTYYADSVKGRYTISRDNAKNTVYLKMNSLKPEDTEVYYCAAERENGDHYRYYYWGQGTQVTVSS | low polyreactivity
QVQLVESWGGLVQAGGSLRLSCAASGFIFSRYAMGWYRQAPGKERELVAAISSRGGSTYYADSVKGRFTISRDNAKNTVYLQMNSLKPEDTAVYYCAKSSPTPHYYWGQGTQVTVSS | high polyreactivity
QVQLVESWGGLVQAGGSLRLSCAASGFTFLNYAMGWYRQAPGKERELVAAISFSTGRTYYADSVKGRFTISRDNAKNTDYLQMNSLKPEDTAVYYGAAGYWPGYSLTYRGGYWGQGTQVTVSS | high polyreactivity
QVQLVESWGGLVQAGGSLRLSCAASGFTLTPYAMGWYRQAPGKERELVAASRWSGGSTYYADSVKGRFTISRDNAKNTVYLQMNSLKPEDTAVYYCAARYAYRPVNGYKYWGQGTQVTVSS | high polyreactivity
QVQLVESWGGLVQAGGSLRLSCAASGGTFGNNDMGWYRQAPGKERELVAAIRSAGTTYYADSVKGRFTISRDNAKNTVYLQMNSLKPEDTAVYYCNADTTGYWSYGFQYYGEDYWGQGTQVTVSS | low polyreactivity
QVQLVESWGGLVQAGGSLRLSCAASGINFWVYAMGWYRQAPGQERELVAAISRRGGSTSYADSVKGRFTISRDNAKNTVYLQMKSLKPEDTAVYFCAATTYTHPYGYWGQGTQVTVSS | high polyreactivity
QVQLVESWGGLVQAGGSLRLSCAASGITFFFYAMGLYRLAPGKERELVASITWEDGSTYYADSVKGRFTISRDNANNTVYLQKNSLKPEDTAVYYCAADFEAGGYSLDYWGQGTQVTVSS | low polyreactivity
QVQLVESWGGLVQAGGSLRLSCAASGITFFTYAMGWYRQAPGKERELVAGISKTGGRSYYADSVKGRFTISRDNSKNTVYLQMNSLKPDDTAVYFCAAYFRSDYGYWGQGNQVTVSS | high polyreactivity
QVQLVESWGGLVQAGGSLRLSCAASGITFLRNTMGWYRQAPGKERELVAAISRGGSTYYADSVKGRFTISRDNAKNTVFLQMKSLKPEDTAVYYCNAPSYVQATDYDYWGQGTQVTVSS | high polyreactivity
QVQLVESWGGLVQAGGSLRLSCAASGITFPINTMGWYRQAPGKERELVAGIDWTGGSTYYADSVKGRFTISRDNAKNTVYLQMNSLKPEDTAVYYCAKRSYTGYEYWGQGTQVTVSS | low polyreactivity
QVQLVESWGGLVQAGGSLRLSCAASGNTIIRYAMGWYSQAPGKERELVAAISRSGGRTYYADSVKGRFTISRDNAKNTVYLQMNSLKPEDTAVYYCAAKIYIPRGYDYWGQGTQVTVSS | high polyreactivity
QVQLVESWGGLVQAGGSLRLSCAASGRIFGANARGWYRQAPGKERELVATITYGGTSTYYADSVKGRFTISRDNAKNSVYLQLNSLKPEYTADYYCAAASTYPLPYDFWGQGTQVTVSS | low polyreactivity
QVQLVESWGGLVQAGGSLRLSCAASGRIFYKYAMGWYRQAPGKERELVAAISYSGGSTYYADSVKGRFTISRDNAKITVYLQMKSLKQEDTAVDDCNAKPPYGVRSWGDYWGQGTKVTVSS | low polyreactivity
QVQLVESWGGLVQAGGSLRLSCAASGRTIEQYAMGWYRQAPGKERELVAAISGSGGSTFYADSVKGRFTISRDNAKNTVYLQMNSLKPEDTAVYYCNAPGDGYLYDHTYDYWGQGTQVTVSS | low polyreactivity
